Experiment [1] concerns the target Drosophila 80S ribosome (Drosophila (endogenous in fly embryos)) (UniProt P46222). Nature of the experiment: FRET or BRET.
Experiment [2] has the same target. Nature of the experiment: SEC.

pKd: −log10 of the molar value.

Regarding “NT-dFMRP ΔRGG mutant, residues 220-413 (from UniProt Q9NFU0 220-413) (domain or fragment)”, the pKd (usually the Kd on a negative log10 scale, so that one unit is a factor of ten) in experiment [1] is under 5.70. In the case of “NT-dFMRP KH2 (I307N) mutant (from UniProt Q9NFU0 220-681) (domain or fragment)”, the pKd in experiment [1] was 7.21.

In experiment [1], “NT-dFMRP KH1 (I244N) mutant (from UniProt Q9NFU0 220-681) (domain or fragment)” gave a pKd of 6.89. In experiment [2], the fold reduction of binding against NT-dFMRP was 2 fold.

The values above are taken from paper PMC4019695.
